The record followed here is the supplement of paper PMC10567573.

B1: ZNF263 (parent)
chain: QRTHTGEKPYKCPECGEIFAHSSN
B2: EPB41L3 (parent)
chain: SDYISEFRFAPNHTKELEDKVIEL
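Further: lentivirally expressed fusions sorted by FACS into six bins by GFP to DsRed ratio, PSI derived from sequencing read proportions per bin multiplied by bin number.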

The first series covers variants of B1. The experiment in a line: protein stability index of a GFP-peptide fusion (GPS, HEK-293T) (PSI 1-6); higher = more stable. The following applies: c terminus: a fixed tail appended.
With QRTHEGEKPYKCPECGEIFAHSSN [T5E], the protein stability index is 2.89.
Same read-out and setting: as for QRTHCGEKPYKCPECGEIFAHSSN [T5C], the figure is 3.81; as for QRTHFGEKPYKCPECGEIFAHSSN [T5F], 2.92.
The same measure, in the same setting: next, QRTHAGEKPYKCPECGEIFAHSSN [T5A]: 3.25.
Consider QRTHQGEKPYKCPECGEIFAHSSN [T5Q], for which the protein stability index is 3.65.
As for QRTHHGEKPYKCPECGEIFAHSSN [T5H], the protein stability index was 3.75.
Consider QRTHLGEKPYKCPECGEIFAHSSN [T5L], for which the protein stability index worked out at 2.99.
QRTHIGEKPYKCPECGEIFAHSSN [T5I]: the protein stability index was 3.03.
The same measure, in the same setting: as for QRTHRGEKPYKCPECGEIFAHSSN [T5R], the figure is 2.27; as for QRTHNGEKPYKCPECGEIFAHSSN [T5N], 3.57.
Regarding QRTHDGEKPYKCPECGEIFAHSSN [T5D], the protein stability index stood at 3.6.
For QRTHMGEKPYKCPECGEIFAHSSN [T5M], the protein stability index was found to be 3.09.
On the same count and under the same terms, next, QRTHPGEKPYKCPECGEIFAHSSN [T5P]: 2.74; QRTHKGEKPYKCPECGEIFAHSSN [T5K]: 3.
Still for that read-out and setting: next, QRTHGGEKPYKCPECGEIFAHSSN [T5G]: 3.41; QGTHTGEKPYKCPECGEIFAHSSN [R2G]: 4.29; QATHTGEKPYKCPECGEIFAHSSN [R2A]: 3.34.
Same read-out and setting: as for QCTHTGEKPYKCPECGEIFAHSSN [R2C], the figure is 4.86.
With QVTHTGEKPYKCPECGEIFAHSSN [R2V], the protein stability index is 2.88.
Still for that read-out and setting: next, QTTHTGEKPYKCPECGEIFAHSSN [R2T]: 3.45; QWTHTGEKPYKCPECGEIFAHSSN [R2W]: 2.9.
As for QNTHTGEKPYKCPECGEIFAHSSN [R2N], the protein stability index was 4.07.
Still for that read-out and setting: as for QSTHTGEKPYKCPECGEIFAHSSN [R2S], the figure is 3.88; as for QKTHTGEKPYKCPECGEIFAHSSN [R2K], 2.92.
Turning to QETHTGEKPYKCPECGEIFAHSSN [R2E], the protein stability index is 3.78.
Take QFTHTGEKPYKCPECGEIFAHSSN [R2F]: the protein stability index amounted to 2.82.
With QPTHTGEKPYKCPECGEIFAHSSN [R2P], the protein stability index worked out at 3.77.
The same measure, in the same setting: as for QHTHTGEKPYKCPECGEIFAHSSN [R2H], the figure is 4.35; as for QYTHTGEKPYKCPECGEIFAHSSN [R2Y], 3.02.
On the same count and under the same terms, next, QLTHTGEKPYKCPECGEIFAHSSN [R2L]: 3.6.
Same read-out and setting: next, QMTHTGEKPYKCPECGEIFAHSSN [R2M]: 2.62; QDTHTGEKPYKCPECGEIFAHSSN [R2D]: 4.06.
On to QITHTGEKPYKCPECGEIFAHSSN [R2I], for which the protein stability index was found to be 3.32.
Still for that read-out and setting: as for QQTHTGEKPYKCPECGEIFAHSSN [R2Q], the figure is 3.3; as for QRIHTGEKPYKCPECGEIFAHSSN [T3I], 2.93; as for QRLHTGEKPYKCPECGEIFAHSSN [T3L], 3.31.
The same measure, in the same setting: next, QRNHTGEKPYKCPECGEIFAHSSN [T3N]: 3.79.
On the same count and under the same terms, next, QRGHTGEKPYKCPECGEIFAHSSN [T3G]: 4.28.
Turning to QRWHTGEKPYKCPECGEIFAHSSN [T3W], the protein stability index turned out to be 2.53.
On to QRHHTGEKPYKCPECGEIFAHSSN [T3H], for which the protein stability index was found to be 3.51.
Same read-out and setting: next, QRQHTGEKPYKCPECGEIFAHSSN [T3Q]: 2.86; QRYHTGEKPYKCPECGEIFAHSSN [T3Y]: 2.58; QRDHTGEKPYKCPECGEIFAHSSN [T3D]: 3.5.
On the same count and under the same terms, as for QRKHTGEKPYKCPECGEIFAHSSN [T3K], the figure is 3.28; as for QRFHTGEKPYKCPECGEIFAHSSN [T3F], 2.67; as for QRSHTGEKPYKCPECGEIFAHSSN [T3S], 3.43.
Same read-out and setting: as for QREHTGEKPYKCPECGEIFAHSSN [T3E], the figure is 3.51; as for QRCHTGEKPYKCPECGEIFAHSSN [T3C], 3.27; as for QRVHTGEKPYKCPECGEIFAHSSN [T3V], 3.04.
For QRAHTGEKPYKCPECGEIFAHSSN [T3A], the protein stability index came out at 3.55.
Still for that read-out and setting: next, QRMHTGEKPYKCPECGEIFAHSSN [T3M]: 3.43.
For the variant QRRHTGEKPYKCPECGEIFAHSSN [T3R], the protein stability index is 2.85.
In the case of QRPHTGEKPYKCPECGEIFAHSSN [T3P], the protein stability index amounted to 3.37.
The same measure, in the same setting: as for FRTHTGEKPYKCPECGEIFAHSSN [Q1F], the figure is 2.74; as for GRTHTGEKPYKCPECGEIFAHSSN [Q1G], 3.06; as for LRTHTGEKPYKCPECGEIFAHSSN [Q1L], 2.76.
Same read-out and setting: next, YRTHTGEKPYKCPECGEIFAHSSN [Q1Y]: 2.57; CRTHTGEKPYKCPECGEIFAHSSN [Q1C]: 4.76; SRTHTGEKPYKCPECGEIFAHSSN [Q1S]: 3.14.
As to KRTHTGEKPYKCPECGEIFAHSSN [Q1K], the protein stability index is 2.72.
The same measure, in the same setting: next, HRTHTGEKPYKCPECGEIFAHSSN [Q1H]: 3.6; ERTHTGEKPYKCPECGEIFAHSSN [Q1E]: 3.46; NRTHTGEKPYKCPECGEIFAHSSN [Q1N]: 3.46.
Same read-out and setting: as for PRTHTGEKPYKCPECGEIFAHSSN [Q1P], the figure is 3.7.
On the same count and under the same terms, as for ARTHTGEKPYKCPECGEIFAHSSN [Q1A], the figure is 2.49.
For WRTHTGEKPYKCPECGEIFAHSSN [Q1W], the protein stability index turned out to be 2.01.
Same read-out and setting: next, TRTHTGEKPYKCPECGEIFAHSSN [Q1T]: 2.82; DRTHTGEKPYKCPECGEIFAHSSN [Q1D]: 3.36; IRTHTGEKPYKCPECGEIFAHSSN [Q1I]: 2.54.
Still for that read-out and setting: as for VRTHTGEKPYKCPECGEIFAHSSN [Q1V], the figure is 2.85; as for RRTHTGEKPYKCPECGEIFAHSSN [Q1R], 2.97.
Still for that read-out and setting: as for MRTHTGEKPYKCPECGEIFAHSSN [Q1M], the figure is 2.71.
In the case of QRTSTGEKPYKCPECGEIFAHSSN [H4S], the protein stability index stood at 3.7.
The same measure, in the same setting: as for QRTTTGEKPYKCPECGEIFAHSSN [H4T], the figure is 3.02; as for QRTATGEKPYKCPECGEIFAHSSN [H4A], 2.92; as for QRTGTGEKPYKCPECGEIFAHSSN [H4G], 3.25.
In the case of QRTDTGEKPYKCPECGEIFAHSSN [H4D], the protein stability index was 3.98.
The same measure, in the same setting: as for QRTETGEKPYKCPECGEIFAHSSN [H4E], the figure is 3.02.
Still for that read-out and setting: next, QRTNTGEKPYKCPECGEIFAHSSN [H4N]: 3.28; QRTVTGEKPYKCPECGEIFAHSSN [H4V]: 2.85.
Still for that read-out and setting: as for QRTRTGEKPYKCPECGEIFAHSSN [H4R], the figure is 3.58.
QRTITGEKPYKCPECGEIFAHSSN [H4I]: the protein stability index is 3.01.
Same read-out and setting: as for QRTWTGEKPYKCPECGEIFAHSSN [H4W], the figure is 3.08; as for QRTQTGEKPYKCPECGEIFAHSSN [H4Q], 3.52; as for QRTCTGEKPYKCPECGEIFAHSSN [H4C], 3.29.
Still for that read-out and setting: next, QRTLTGEKPYKCPECGEIFAHSSN [H4L]: 3.4.
On the same count and under the same terms, next, QRTFTGEKPYKCPECGEIFAHSSN [H4F]: 3.37.
QRTKTGEKPYKCPECGEIFAHSSN [H4K]: the protein stability index came out at 3.77.
Same read-out and setting: next, QRTPTGEKPYKCPECGEIFAHSSN [H4P]: 3.27; QRTMTGEKPYKCPECGEIFAHSSN [H4M]: 3.44.
Take QRTYTGEKPYKCPECGEIFAHSSN [H4Y]: the protein stability index was determined as 2.77.

Variants of B2 are the subject of another series. Described as above. The settings on record: c terminus: a fixed tail appended.
Take SDYISEFRFAPNHTKELEDKVIEY [L24Y]: the protein stability index was determined as 2.08.
For SDYISEFRFAPNHTKELEDKVIEV [L24V], the protein stability index was determined as 2.18.
On to SDYISEFRFAPNHTKELEDKVIEW [L24W], for which the protein stability index is 2.44.
